Key:
[1] = target: soluble HLA-DR1 loaded with A2 peptide (human); assay: SEC
[2] = target: soluble gHgL (gH residue 18-679 and gL residue 24-137) (Epstein-Barr virus) (UniProt P03231); assay: SEC
Sequence of UniProt P03231 (P03231 18-679 limits assumed, chain 1 of 2): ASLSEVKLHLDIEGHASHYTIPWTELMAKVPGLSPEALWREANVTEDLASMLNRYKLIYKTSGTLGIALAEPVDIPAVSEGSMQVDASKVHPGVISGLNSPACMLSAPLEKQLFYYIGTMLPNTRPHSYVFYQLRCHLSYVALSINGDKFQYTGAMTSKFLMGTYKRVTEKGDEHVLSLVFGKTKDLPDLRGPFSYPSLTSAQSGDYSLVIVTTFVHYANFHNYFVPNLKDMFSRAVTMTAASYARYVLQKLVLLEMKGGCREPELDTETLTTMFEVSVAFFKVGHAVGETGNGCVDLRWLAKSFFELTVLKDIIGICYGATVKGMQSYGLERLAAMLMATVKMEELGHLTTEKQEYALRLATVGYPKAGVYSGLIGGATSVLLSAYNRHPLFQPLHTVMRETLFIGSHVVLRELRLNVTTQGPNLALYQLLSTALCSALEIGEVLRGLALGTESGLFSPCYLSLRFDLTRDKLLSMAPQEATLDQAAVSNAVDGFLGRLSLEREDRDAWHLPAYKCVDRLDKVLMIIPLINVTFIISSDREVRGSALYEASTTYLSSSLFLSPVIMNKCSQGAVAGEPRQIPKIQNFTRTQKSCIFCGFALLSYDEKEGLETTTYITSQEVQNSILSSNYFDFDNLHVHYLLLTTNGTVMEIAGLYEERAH
Sequence of UniProt P03231 (P03212 24-137 limits assumed, chain 2 of 2, further chain): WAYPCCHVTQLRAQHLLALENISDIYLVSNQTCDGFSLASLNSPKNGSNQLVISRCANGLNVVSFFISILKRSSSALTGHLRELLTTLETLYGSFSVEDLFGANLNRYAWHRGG

## soluble gp42 (residue 33-223) (from UniProt P03205 33-223) (domain or fragment)
[1]
  stoichiometry N (gp42 per HLA-DR1): 1
[2]
  stoichiometry N (gp42 per gHgL): 1
